Measured values taken from patent US20010049357A1, “Use of Hsp27 as an anti-inflammatory agent” (priority 1999, published 2001).

B1: Hsp25: a murine analogue of Hsp27 (protein, UniProt P14602 1-209, looked up)
Heat shock protein beta-1: MTERRVPFSLLRSPSWEPFRDWYPAHSRLFDQAFGVPRLPDEWSQWFSAAGWPGYVRPLPAATAEGPAAVTLAAPAFSRALNRQLSSGVSEIRQTADRWRVSLDVNHFAPEELTVKTKEGVVEITGKHEERQDEHGYISRCFTRKYTLPPGVDPTLVSSSLSPEGTLTVEAPLPKAVTQSAEITIPVTFEARAQIGGPEAGKSEQSGAK
B2: Hsp 60: Human 60-kDa heat-shock protein, member of the large Hsp family (protein, UniProt P10809 27-573, looked up)
60 kDa heat shock protein, …: AKDVKFGADARALMLQGVDLLADAVAVTMGPKGRTVIIEQSWGSPKVTKDGVTVAKSIDLKDKYKNIGAKLVQDVANNTNEEAGDGTTTATVLARSIAKEGFEKISKGANPVEIRRGVMLAVDAVIAELKKQSKPVTTPEEIAQVATISANGDKEIGNIISDAMKKVGRKGVITVKDGKTLNDELEIIEGMKFDRGYISPYFINTSKGQKCEFQDAYVLLSEKKISSIQSIVPALEIANAHRKPLVIIAEDVDGEALSTLVLNRLKVGLQVVAVKAPGFGDNRKNQLKDMAIATGGAVFGEEGLTLNLEDVQPHDLGKVGEVIVTKDDAMLLKGKGDKAQIEKRIQEIIEQLDVTTSEYEKEKLNERLAKLSDGVAVLKVGGTSDVEVNEKKDRVTDALNATRAAVEEGIVLGGGCALLRCIPALDSLTPANEDQKIGIEIIKRTLKIPAMTIAKNAGVEGSLIVEKIMQSSSEVGYDAMAGDFVNMVEKGIIDPTKVVRTALLDAAGVASLLTTAEVVVTEIPKEEKDPGMGAMGGMGGGMGGGMF

Columns and labels:
[1] = Adverse effect of Hsp 25 in normal rats; type: in vivo; settings: 10 μg in normal rats (~250 gm body weight)
Method: Studies were performed to analyze the adverse effect of Hsp 25 (a murine analogue of Hsp27 ) in rats. […] To examine the effects in an animal model, the cecal ligation and puncture model (CLP) in rats can be used. (Chaudry, et al, 1993, In: Schlag, G. and Redl, H. (Eds), Pathophysiology of shock, Sepsis, and Organ Failure. Springer-Verlag, pp. 1048-1059.) CLP induces sepsis in rats. Hsp25 is administered to the CLP animals and the anti-inflammatory effect of Hsp25 in CLP rats is evaluated. The effectiveness of Hsp25 in simultaneously inducing IL-10 and IL-12 in human monocytes in the rat model, is reasonably predictive of the efficacy of Hsp27 as an anti-inflammatory agent in humans.

[2] = system: Mono Mac 6, a human monocyte cell line; settings: reference 7; cited from earlier work

Row | Molecule | adverse effects [1] | TNFα induced [2]
1 | B1 | did not induce any adverse effects | –
2 | B2 | – | approximately 750 pg/ml
